We go through one molecule from paper PMC6598686 (Molecular cell, 2019).

For this test, the target named is human linker histone H1.4 (human, UniProt P10412 1-219). Description: pull-down.
human linker histone H1.4, sequence (P10412 whole entry): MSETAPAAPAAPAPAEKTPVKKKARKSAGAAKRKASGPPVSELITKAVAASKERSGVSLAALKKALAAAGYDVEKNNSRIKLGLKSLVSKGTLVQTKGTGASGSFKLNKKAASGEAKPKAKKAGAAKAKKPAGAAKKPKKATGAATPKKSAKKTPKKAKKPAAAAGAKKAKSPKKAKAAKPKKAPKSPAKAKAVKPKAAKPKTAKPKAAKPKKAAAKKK

B1: His-tagged NAP1(160-312) (domain or fragment, human, UniProt P55209 160-312, looked up)
chain: EKEDPKGIPEFWLTVFKNVDLLSDMVQEHDEPILKHLKDIKVKFSDAGQPMSFVLEFHFEPNEYFTNEVLTKTYRMRSEPDDSDPFSFDGPEIMGCTGCQIDWKKGKNVTLKTIKKKQKHKGRGTVRTVTKTVSNDSFFNFFAPPEVPESGDL
For B1, the binding result is on record as “binds”.
